Results: patent US20070243191A1, “ANTI-HYPERPROLIFERATIVE THERAPIES TARGETING HDGF” (THE BOARD OF REGENTS OF THE UNIVERSITY OF TEXAS SYSTEM, priority 2005, published 2007)
Blank lines part the entries; values can stand above or below the molecule they belong to.

How the values were obtained:
[1] = system: A549 xenograft; experiment: A549 xenograft model, H3 in combination with gemcitabine and Avastin; format: in vivo, mouse; settings: single agents and combinations
Experimental: To determine potential synergistic effects of combining the antibodies with other cancer therapeutic agents, the H3 antibody was tested in combination with gemcitabine, a commonly used chemotherapeutic agent, and Avastin®, a FDA approved VEGF neutralizing monoclonal antibody, in the A549 xenograft model. At day 7 after tumor cell inoculation subcutaneously, the animals were randomized into one of the 8 groups: […] (6 mice), gemcitabine (5 mice), H3 (7 mice), Avastin® (5 mice), H3+gemcitabine (5 mice), 113+Avastin® (5 mice), Avastin®+gemcitabin (5 mice), and H3+ gemcitabine+Avastin® (7 mice). In this experiment, all the agents were given IP at day 7 and every 3 days thereafter for total 5 injections. H3 was given 250 μg per mouse/injection without boost at first injection; gemcitabine was given in a dose of 80 mg/kg/injection; and Avastin® was given 100 μg per mouse/injection.

[2] = system: tumor microvessels; experiment: CD31 staining of microvessels in treated A549 xenograft tumors; format: in vivo, mouse
Source text: In order to directly study the antiangiogenic action of anti-HDGF antibodies, the xenograph tumors treated with the various agents and presented in the foregoing example (see FIG. 8) were studied following CD31 staining. CD31 antibody staining is generally regarded as a convenient means of visualizing microvessels in order to assess angiogenesis and anti-angiogenic action. Each of the tumors treated as described with respect to FIG. 8 were subjected to CD31 staining.

[3] = system: A549 xenograft; experiment: A549 xenograft model, individual monoclonal antibodies; format: in vivo, mouse; settings: for average tumor weights: 500 μg boost then 250 μg every three days x4 i.p., day 22, PBS 784±458; for tumor growth inhibition vs PBS and M31 controls: A549 xenograft, individual antibodies
Source text: To determine an anti-tumor effect of individual monoclonal antibodies, the CELLine™ system (BD Biosciences) was used to generate the amount of antibodies for each clone sufficient for our animal experiments. In our second experiment, we tested four individual monoclonal antibodies (H3, C1, C4, and L5-9) and used PBS and M31, an IgG1 antibody without known antigen, as controls. Cell inoculation was similar to the experiment described above, 7 days after subcutaneous injection of A549 cells, the animals with established tumors were randomized into one of the 6 groups. Besides PBS group, which was given 200 μl PBS every IP injection, all the other groups were given a 500 μg of individual antibody as boost dose followed by 250 μg/injection every three days for four times. Tumor sizes were measured every three days. All the animals were sacrificed at day 22 after tumor cell inoculation.

[4] = molecular target: T1, HDGF (Homo sapiens, UniProt P51858); experiment: Immunoprecipitation of HDGF from H460 total cell lysates; format: binding; settings: H460 NSCLC total cell lysates
T1 construct: The antibody sufficiently pulled down over 90% of the cellular HDGF; endogenous in cells; host or cells: H460 NSCLC cells (total cell lysate)
T1 sequence (P51858 whole entry): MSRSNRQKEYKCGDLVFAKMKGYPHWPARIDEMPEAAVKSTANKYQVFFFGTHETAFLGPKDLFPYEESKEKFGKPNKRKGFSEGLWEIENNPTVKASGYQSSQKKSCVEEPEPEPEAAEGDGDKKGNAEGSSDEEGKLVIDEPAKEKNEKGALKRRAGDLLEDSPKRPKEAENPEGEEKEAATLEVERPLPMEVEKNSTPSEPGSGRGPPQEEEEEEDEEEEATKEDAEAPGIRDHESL
Experimental: In most studies, HDGF was found localized in nuclear compartment. […] One possibility of the lacking cytoplasmic staining is the common IHC conditions. Alternatively, the protein may be rapidly released from cells making the detection of protein in cytoplasm difficult. Taking advantage of the newly developed monoclonal antibodies, two sets of experiments were performed to determine the subcellular localization of HDGF and the secretion/releasing status of the protein. In one set of experiment, H3 was used for immunoprecipitation (IP) employing total cell lysates from H460 NSCLC cells. The antibody sufficiently pulled down over 90% of the cellular HDGF. Some potential HDGF binding proteins might have also co-precipitated with HDGF. We then extracted cytoplasmic proteins and nuclear proteins separately and performed IP as described above followed by 2-DE protein separation. Although the relative HDGF protein amount was higher in the nuclear than in the cytoplasm with equal amount of protein loading, HDGF was clearly presented in cytoplasm with distinct modification or homologues patterns between the two subcellular compartments. It should be noted that the total amount of cytoplasmic proteins is much higher than the nuclear proteins. Therefore, the absolute amount of HDGF in cytoplasm may actually be similar or even higher to that in nuclear.

[5] = system: L3.6 pancreatic cancer cells; experiment: L3.6 pancreatic cancer xenograft model; format: in vivo; settings: mice with tumors bigger than 500 mg, one week after treatment
Experimental: Anti-HDGF antibodies were tested for a therapeutic effect in a xenograft model using metastatic L3.6 pancreatic cancer cells. After 10 days of tumor cell inoculation, mice were randomly selected into either M31 control antibody treatment, H3 antibody treatment, or C1 antibody treatment. The sizes of the tumors were between 100-200 mg at the time of treatment except three which grown bigger than 500 mg and were assigned to each group. […] This phenomenon is similar to human clinical observations where some established primary lung cancers develop liquidized central part of the tumors after treatment with agents having anti-angiogenic activity such as sorafenib (BAY 43-9006). This is a hallmark feature of anti-angiogenic agents as a class.

[6] = molecular target: T2, HDGF (Mus musculus, UniProt P51859, A118D); experiment: Western blot of HDGF in putative MiaPaca-2 cells; format: binding; settings: putative MiaPaca-2 line (murine HDGF)
T2 construct: endogenous in cells; host or cells: putative MiaPaca-2 cells, believed to be M109 murine lung adenocarcinoma
T2 sequence (P51859 whole entry A118D): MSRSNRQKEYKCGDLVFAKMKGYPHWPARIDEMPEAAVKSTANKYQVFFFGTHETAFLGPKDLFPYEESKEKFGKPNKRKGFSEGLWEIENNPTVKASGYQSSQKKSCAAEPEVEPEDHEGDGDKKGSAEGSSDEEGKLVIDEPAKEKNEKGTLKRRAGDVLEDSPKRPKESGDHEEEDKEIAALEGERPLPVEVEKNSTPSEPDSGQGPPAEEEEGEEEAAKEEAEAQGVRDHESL
Experimental: (§1) The two antibodies were tested using what was believed at the time to be the MiaPaca-2 pancreatic cancer xenograft model. […] This observation led to the use of H3 in the initial combination experiment described above. To determine the expression of HDGF in the cell line, a Western blot analysis was performed using C1 and H3 antibodies. […] To determine HDGF expression levels in pancreatic cancers, 7 additional pancreatic cancer cell lines were analyzed. All the 7 cell lines expressed high-level HDGF recognizable by H3 antibody but not the putative “MiaPaca-2” line.
(§2) An immunoprecipitation assay was then performed using H3 antibody to determine whether the antibody recognizes the native HDGF in the cells, which is important to explain why the antibody had inhibited the tumor growth in the xenograft model. […] Because the protein migrated faster than the HDGF from NSCLC cell lines, the HDGF cDNA from “MiaPaca-2” cells was sequenced. […] The origin of the cell line was traced and is now believed to be M109, a murine lung adenocarcinoma cell line from a mouse spontaneous lung cancer.

[7] = system: "MiaPaca-2" line (M109); experiment: Putative MiaPaca-2 (believed M109 murine lung adenocarcinoma) xenograft model; format: in vivo, mouse; settings: putative MiaPaca-2 (murine M109) model, H3 compared with C1
Experimental: as §1, §2

[8] = system: H460 xenograft; experiment: H460 xenograft model; format: in vivo, mouse
[9] = molecular target: T3, native HDGF (Mus musculus, UniProt P51859); experiment: Immunoprecipitation of native HDGF from putative MiaPaca-2 cells; format: binding; settings: putative MiaPaca-2 cells (murine HDGF)
T3 construct: endogenous in cells; host or cells: putative MiaPaca-2 cells, believed to be M109 murine lung adenocarcinoma
T3 sequence (P51859 whole entry): as the sequence (P51859 whole entry A118D) above, with D118A counted along it
Experimental: as §2

[10] = Antibody distribution after intra-peritoneal injection in tumor-bearing nude mice; format: in vivo; settings: for antibody localization in tumor tissue (anti-mouse IgG staining): tumor tissue sections of treated tumors
Experimental: To determine the distribution of the antibodies after intra-peritoneal injection in the animals, we injected fluoresce labeled M31 and H3 antibodies into nude mice and used a scanner to measure the antibody distribution 12 h after injection. […] To determine the antibody distribution in the tumor tissues and to compare the patterns of the distribution in the tumor tissues among the different antibodies, a specific anti-mouse IgG antibody was used to stain tumor tissue sections of tumors treated with different antibodies.

[11] = molecular target: native HDGF (Homo sapiens, UniProt P51858); experiment: Binding to native HDGF (immunoprecipitation, clone selection)
Sequence of native HDGF (Homo sapiens, UniProt P51858) (P51858 whole entry): as the sequence (P51858 whole entry) above
Source text: Thus, to develop a useful therapeutic that could affect tumor control, it was deemed important to develop high-affinity monoclonal antibodies that had the ability to bind native HDGF. An exemplary approach that was employed by the inventors involved, first, generating full-length recombinant HDGF in bacteria. This bacterially expressed recombinant HDGF was then used the immunize mice to generate mature B cells secreting antibodies specifically recognizing HDGF. After fusing the B cells with myeloma cells and several rounds of screening/selection steps, single clones secreting high-affinity IgGs capable to bind native HDGF were identified. […] Antibodies from these clones were selected and tested using IHC. Similar staining patterns were obtained in a panel of tumor samples among these antibodies and between these antibodies and the previously mentioned polyclonal antibodies, indicating these antibodies recognize HDGF. All of the four monoclonal antibodies are IgG1 and have been adapted to serum-free conditions for scale-up production.

[12] = molecular target: T4, human hepatoma-derived growth factor (HDGF) (human, UniProt P51858 1-240); experiment: sandwich ELISA, 40 ng C1 coated per well as capture antibody
T4 construct: In most assays the endogenous protein of human cancer cell lines or tissues (lysates for immunoprecipitation, denatured on Western blots); also called native HDGF; recombinant HDGF
T4 sequence (P51858 whole entry): as above

Molecule: Nc1ccn([C@@H]2O[C@H](CO)[C@@H](O)C2(F)F)c(=O)n1 [gemcitabine, reference compound]
tumor growth inhibition [1]: only modest tumor growth inhibition
size of the microvessels in the tumors [2]: further increase the size

Molecule: Avastin®: FDA approved VEGF neutralizing monoclonal antibody [reference compound]
tumor growth inhibition [1]: best inhibition
numbers of microvessels in the tumors [2]: substantially reduced numbers of microvessels

B3: C1: anti-HDGF IgG1 monoclonal antibody; heavy chain SEQ ID NO:32, light chain SEQ ID NO:34 (antibody, V domains shown)
VH: EVQLVESGGRLVQPKGSLKLSCAASGFTFNTYAMYWIRQAPGKGLEWVARIRSKSYNYATYYADSVKDRFTISRDDSQSMLYLQMNNLKTADTAMYYCVSEGFWGQGTSVTVSS
VL: DVLMTQTPLSLPVSLGDQASISCRSSQSIVHSSGNTYLEWYLQKPGQSPKLLIYKVSNRFSGVPDRFSGSGSGTDFTLKISRVEAEDLGVYYCFQGSHVPWTFGGGTKLEIK
modifications: C1 heavy chain aa; C1 light chain aa
average tumor weights [3]: 224±85
tumor growth inhibition vs PBS and M31 controls [3]: most significant tumor growth inhibition
liquidized central part of tumor (hollow effect) [5]: developed liquidized central part
detection of HDGF on Western blots [6]: did not detect HDGF
tumor growth inhibition [8]: effective in inhibiting tumor growth
antibody localization in tumor tissue (anti-mouse IgG staining) [10]: entered into both cytoplasm and nuclear
binding to native HDGF [11]: ability to immunoprecipitate HDGF

Continued, in another order:

cellular HDGF pulled down by immunoprecipitation [4]: over 90%
detection of HDGF on Western blots [6]: did not detect HDGF
binding to native HDGF of the tumor cells [9]: strongly bound
binding to native HDGF [11]: ability to immunoprecipitate HDGF
B1: H3: anti-HDGF IgG1 monoclonal antibody; heavy chain SEQ ID NO:36, light chain SEQ ID NO:38 (antibody, V domains shown)
VH: QITLKQSGPGIVQPSQPVRLTCTFSGFSLSTSGIGVAWIRQPSGKGLEWLATIWWDDDNRYNPSLKSRLAVSKDTSNNQAFLNIITVETADTAIYYCAQIYDYAVGFAYWGQGTLVTVSA
VL: DIQMTQTTSSLSASLGDRVTISCRASQDISNYLNWYQQKPDGTVKLLIYYTSRLHSGVPSRFSGSGSGTDYSLTISNLEPDDIATYYCQQYGKLWTFGGGTKLEIK
modifications: H3 heavy chain aa; H3 light chain aa
average tumor weights [3]: 266±22
tumor growth inhibition vs PBS and M31 controls [3]: most significant tumor growth inhibition
tumor growth inhibition [1]: best inhibition followed by H3
liquidized central part of tumor (hollow effect) [5]: developed liquidized central part
numbers of microvessels in the tumors [2]: substantially reduced numbers of microvessels
size of the microvessels in the tumors [2]: stronger role in reducing the size
tumor growth inhibition [7]: better tumor growth inhibition
tumor growth inhibition [8]: effective in inhibiting tumor growth
antibody distribution in the animals including tumors ([10]; fluorescence-labeled antibody, 12 h after i.p. injection, nude mice): evenly distributed
antibody localization in tumor tissue (anti-mouse IgG staining) [10]: entered into the cytoplasmic compartment of some tumor cells

binding result [12]: binds
B2: anti-HDGF monoclonal antibody C1 (antibody, V domains shown)
VH: B3 VH
VL: B3 VL
notes: also called HDGF C1-2f; C1 antibody
